Measurements reported in ChEMBL document CHEMBL3525919, “Potent inhibition of human sulfotransferase 1A1 by 17α-ethinylestradiol: role of 3'-phosphoadenosine 5'-phosphosulfate binding and structural rearrangements in regulating inhibition and activity” (Drug Metab Dispos, 2012).

B1: Sulfotransferase 1A1 (Homo sapiens) (protein)
chain: MELIQDTSRPPLEYVKGVPLIKYFAEALGPLQSFQARPDDLLISTYPKSGTTWVSQILDMIYQGGDLEKCHRAPIFMRVPFLEFKAPGIPSGMETLKDTPAPRLLKTHLPLALLPQTLLDQKVKVVYVARNAKDVAVSYYHFYHMAKVHPEPGTWDSFLEKFMVGEVSYGSWYQHVQEWWELSRTHPVLYLFYEDMKENPKREIQKILEFVGRSLPEETVDFVVQHTSFKEMKKNPMTNYTTVPQEFMDHSISPFMRKGMAGDWKTTFTVAQNERFDADYAEKMAGCSLSFRSEL
B2: Sulfotransferase 1E1 (Homo sapiens) (protein)
chain: MNSELDYYEKFEEVHGILMYKDFVKYWDNVEAFQARPDDLVIATYPKSGTTWVSEIVYMIYKEGDVEKCKEDVIFNRIPFLECRKENLMNGVKQLDEMNSPRIVKTHLPPELLPASFWEKDCKIIYLCRNAKDVAVSFYYFFLMVAGHPNPGSFPEFVEKFMQGQVPYGSWYKHVKSWWEKGKSPRVLFLFYEDLKEDIRKEVIKLIHFLERKPSEELVDRIIHHTSFQEMKNNPSTNYTTLPDEIMNQKLSPFMRKGITGDWKNHFTVALNEKFDKHYEQQMKESTLKFRTEI

How the values were obtained:
[1] = substrate: C#C[C@]1(O)CC[C@H]2[C@@H]3CCc4cc(O)ccc4[C@H]3CC[C@@]21C; assay: Activity of human SULT1A1 expressed in Escherichia coli at 6 uM by Michaelis-Menten equation analysis in presence of PAPS; type: ADME
[2] = substrate: C[C@]12CC[C@@H]3c4ccc(O)cc4CC[C@H]3[C@@H]1CC[C@@H]2O; assay: Activity of human SULT1A1 expressed in Escherichia coli at 20 uM by Michaelis-Menten equation analysis in presence of PAPS; type: ADME
[3] = substrate: C[C@]12CC[C@@H]3c4ccc(O)cc4CC[C@H]3[C@@H]1CC[C@@H]2O; assay: Activity of SULT1E1 (unknown origin); type: ADME, Homo sapiens

| Protein | Km [1] | Km [2] | Km [3] |
| --- | --- | --- | --- |
| B1 | 0.45 µM | 0.36 µM | – |
| B2 | – | – | 0.004 µM |
